From patent publication EP0980426B1 (Genentech, Inc., dated 2004)

B1: PXXP-HSCF peptide, 432GFNLRIGRPKGPRDPPAEWT451 (PTP HSCF) (peptide)
peptide: GFNLRIGRPKGPRDPPAEWT
notes: Synthetic peptide; also called C-terminally derived PTP HSCF peptide; peptide derived from the C-terminus of PTP HSCF

What follows are binders tested against T1, PSTPIP, full-length, with a C-terminal FLAG epitope (murine, UniProt P97814 1-415) (assay: peptide competition of GST-PST-rich+CTH PTP HSCF pull-down of in vitro translated PSTPIP).
T1 construct: In vitro transcribed/translated or expressed in COS cells from pRK.PIP.FLAG.C
T1 sequence: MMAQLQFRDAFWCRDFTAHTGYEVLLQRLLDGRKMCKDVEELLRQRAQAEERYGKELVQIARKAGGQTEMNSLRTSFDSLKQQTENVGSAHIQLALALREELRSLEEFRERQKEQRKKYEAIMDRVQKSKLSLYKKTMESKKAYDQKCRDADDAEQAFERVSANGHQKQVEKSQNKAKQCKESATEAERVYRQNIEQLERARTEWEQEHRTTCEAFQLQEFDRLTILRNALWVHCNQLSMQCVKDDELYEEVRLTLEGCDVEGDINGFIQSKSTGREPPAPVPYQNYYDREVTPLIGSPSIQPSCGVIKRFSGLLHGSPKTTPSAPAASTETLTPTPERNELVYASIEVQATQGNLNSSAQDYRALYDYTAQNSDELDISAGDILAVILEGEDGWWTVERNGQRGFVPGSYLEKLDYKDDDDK

Binder	lowest concentration that blocks the interaction [nM]
B1	~800
GFGNRFSKPKGPRNPPSAW (Synthetic peptide) [PXXP-PEP peptide, 782GFGNRFSKPKGPRNPPSAW800 (PTP PEP)]	~800
GFGNRCGKPKGPRDPPSEWT (Synthetic peptide) [PXXP-PEST peptide, 761GFGNRCGKPKGPRDPPSEWT780 (PTP PEST)]	~800
